# Results reported in patent US20240173426A1 (Regeneron, published 2024).
# T1: human FGFR3b expressed with a C-terminal myc-myc-hexahistidine tag (hFGFR3b.mmH) (human)
# T1 construct: monomeric; also called REGN3152; monomeric human FGFR3b
# T1 chain: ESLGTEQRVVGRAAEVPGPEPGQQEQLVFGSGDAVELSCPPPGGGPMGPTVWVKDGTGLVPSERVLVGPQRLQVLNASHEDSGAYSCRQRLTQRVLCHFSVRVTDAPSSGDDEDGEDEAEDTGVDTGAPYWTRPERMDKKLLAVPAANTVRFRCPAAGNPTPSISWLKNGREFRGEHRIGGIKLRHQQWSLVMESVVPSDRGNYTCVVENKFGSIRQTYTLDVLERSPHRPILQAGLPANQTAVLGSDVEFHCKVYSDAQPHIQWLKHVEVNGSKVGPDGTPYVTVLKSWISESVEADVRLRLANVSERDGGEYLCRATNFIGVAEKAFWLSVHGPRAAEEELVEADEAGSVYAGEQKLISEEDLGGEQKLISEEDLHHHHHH
# T2: murine FGFR3b expressed with a C-terminal myc-myc-hexahistidine tag (mFGFR3b.mmH) (mouse)
# T2 construct: monomeric; also called REGN3215; monomeric murine FGFR3b
# T2 chain: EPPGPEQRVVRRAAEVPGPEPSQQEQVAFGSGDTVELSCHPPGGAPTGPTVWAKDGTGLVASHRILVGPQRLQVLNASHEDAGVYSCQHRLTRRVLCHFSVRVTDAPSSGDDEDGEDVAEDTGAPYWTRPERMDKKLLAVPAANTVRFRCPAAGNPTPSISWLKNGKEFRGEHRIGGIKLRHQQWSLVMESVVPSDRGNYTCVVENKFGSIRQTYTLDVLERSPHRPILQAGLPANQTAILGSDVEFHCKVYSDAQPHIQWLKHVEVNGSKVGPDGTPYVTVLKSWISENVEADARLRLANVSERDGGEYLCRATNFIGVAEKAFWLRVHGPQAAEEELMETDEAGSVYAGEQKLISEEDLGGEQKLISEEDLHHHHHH
# T3: cynomolgus FGFR3b expressed with a C-terminal myc-myc-hexahistidine tag (mfFGFR3b.mmH) (cynomolgus)
# T3 construct: The name states R357G; also called REGN3521; mf FGFR3b ecto (R357G) (E23-G377;R357G).mmH
# T3 chain: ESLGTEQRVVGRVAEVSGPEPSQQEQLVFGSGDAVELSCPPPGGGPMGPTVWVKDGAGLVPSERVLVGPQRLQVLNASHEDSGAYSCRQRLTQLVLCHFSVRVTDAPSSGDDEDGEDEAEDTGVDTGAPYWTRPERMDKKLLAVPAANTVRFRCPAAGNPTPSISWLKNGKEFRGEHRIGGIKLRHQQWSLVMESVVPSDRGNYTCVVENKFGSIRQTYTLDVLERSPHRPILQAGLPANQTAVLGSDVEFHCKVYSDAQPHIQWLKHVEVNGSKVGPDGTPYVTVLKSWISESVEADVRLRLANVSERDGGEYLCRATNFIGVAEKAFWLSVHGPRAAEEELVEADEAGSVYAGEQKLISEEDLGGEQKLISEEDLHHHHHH
# T4: human FGFR3b expressed with a C-terminal murine Fc tag (hFGFR3b.mFc) (human)
# T4 construct: called dimeric; also called REGN3153; dimeric human FGFR3b
# T4 chain: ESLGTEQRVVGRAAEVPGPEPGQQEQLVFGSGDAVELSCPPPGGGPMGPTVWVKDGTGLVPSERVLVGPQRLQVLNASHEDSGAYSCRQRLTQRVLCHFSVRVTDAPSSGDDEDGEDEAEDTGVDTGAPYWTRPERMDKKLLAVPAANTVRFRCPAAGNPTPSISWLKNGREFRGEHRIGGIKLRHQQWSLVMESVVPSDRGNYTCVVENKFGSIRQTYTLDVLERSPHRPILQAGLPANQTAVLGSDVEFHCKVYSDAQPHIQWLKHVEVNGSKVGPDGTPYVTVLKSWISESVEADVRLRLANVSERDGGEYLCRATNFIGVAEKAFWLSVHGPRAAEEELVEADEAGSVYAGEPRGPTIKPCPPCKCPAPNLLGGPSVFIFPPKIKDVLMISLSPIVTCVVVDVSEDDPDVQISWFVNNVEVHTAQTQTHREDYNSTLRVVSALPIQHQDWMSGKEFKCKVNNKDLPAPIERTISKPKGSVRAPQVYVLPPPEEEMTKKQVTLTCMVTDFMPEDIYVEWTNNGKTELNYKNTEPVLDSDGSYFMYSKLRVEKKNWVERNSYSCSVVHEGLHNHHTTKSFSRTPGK
# Tests used:
# Test in all cases: SPR (Biacore), captured mAb, 25 C
# [1] = biological target: T1, human FGFR3b expressed with a …
# Method: (§1) The CM5 Biacore sensor surface was derivatized by amine coupling with a monoclonal mouse anti-human Fc monoclonal antibody (REGN2567). All Biacore binding studies were performed in a buffer composed of 0.01M HEPES pH 7.4, 0.15 M NaCl, 3 mM EDTA, 0.05% v/v Surfactant P20 (HBS-EP running buffer). […] Antibody-reagent association was monitored for 5 minutes while dissociation in HBS-EP running buffer was monitored for 10 minutes. At the end of each cycle, the anti-FGFR3 antibody capture surface was regenerated using a 10 sec injection of 20 mM phosphoric acid. All binding kinetics experiments were performed at 25° C.
# (§2) The specific SPR-Biacore sensorgrams were obtained by a double referencing procedure. The double referencing was performed by first subtracting the signal of each injection over a reference surface (anti-hFc) from the signal over the experimental surface (anti-hFc-captured anti-FGFR3 antibodies) thereby removing contributions from refractive index changes. In addition, running buffer injections were performed to allow subtraction of the signal changes resulting from the dissociation of captured antibodies from the coupled anti-hFc surface. Kinetic association (kₐ) and dissociation (kd) rate constants were determined by fitting the real-time sensorgrams to a 1:1 binding model using Scrubber v2.0c curve fitting software.
# [2] = biological target: T2, murine FGFR3b expressed with a …
# Method: as §1, §2
# [3] = biological target: T3, cynomolgus FGFR3b expressed with a …
# Method: as §1, §2
# [4] = biological target: T4, human FGFR3b expressed with a …
# Method: as §1, §2
# [5] = biological target: T5, human FGFR3c expressed with a C-terminal myc-myc-hexahistidine tag (hFGFR3c.mmH) (human, UniProt P22607 23-375)
# T5 construct: monomeric; also called REGN3155; monomeric human FGFR3c
# Method: as §1, §2
Binder,t½ [1],t½ [2],t½ [3],t½ [4],t½ [5],koff [1],kon [1],koff [5],kon [5]
"H4H30063P (antibody, human IgG4 S228P, kappa, V domains shown, Tested as whole antibody; also called anti-FGFR3b antibody H4H30063P) VH: QVQLQESGPGLVKPSETLSLTCTVSGDSINSYFWSWIRQLPGKELEWIGHIYSSGSTRYNPSLQSRVTISIDTSKNQFSLKLSSVTAADTAVYYCARGASAVDYWGQGTLVTVSS VL: EIVLTQSPGTLSLSPGERATLSCRTSQSISSGYLAWYQQKPGQAPRLLIYGASRRATGIPDRFSGSGSGTDFTLTISRLEPEDFVVYYCQQYGSSPYTFGQGTKLEIKR",302 min,416 min,275 min,≥ 1160 min,,,,,
"H4H30066P (antibody, human IgG4 S228P, kappa, V domains shown) VH: QVQLVQSGAEVKKPGASVKVSCKVSGYTLTELSMHWVRQAPGKGLEWMGGFDPEDGEIIYAQKFQGRVTMTEDTSTDTAYMDLSSLTSEDTAVYYCATEKQQLVRKYYFYYGLAVWGQGTTVTVSS VL: not shown",18.2 min,2.4 min,14.8 min,≥ 1160 min,,,,,
"H4H30071P (antibody, human IgG4 S228P, kappa, V domains shown) VH: QVQLQQSGPGLVKPSQTLSLTCAISGDSVSRNSAAWNWIRQSPSSGLEWLGRTYYRSKWFYDYAISVKSRITVNPDTSKNQFSLHLNSVTPEDTAVYYCARGYGGYEDYFDYWGQGTLVTVSS VL: DIQMTQSPSSVSASVGDRVTITCRASQGISSWLAWYQQKPGKAPKLLIYGASSLQSGVPSRFSGSGSGTDFTLTISSLQPEDFATYFCQQGSSFPYTFGQGTKLEIKR",390 min,6.9 min,520 min,≥ 1160 min,,,,,
"H4H30076P (antibody, human IgG4 S228P, kappa, V domains shown) VH: EVQLVESGGGLVQPGGSLRLSCAASGFTVSSNYMSWVRQAPGKGLEWVSIIYSGGHTYYSDSVKGRFTISRHNSKNTLYLQMNSLRGGDTAVYYCARGYTSGWYGFDFWGQGTLVTVSS VL: DIQMTQSPSSVSASVGDRVTITCRASQGISTWLAWYQQKPGKAPKLLIYAASSLQSGVPSRFSGTGSGTDFTLTISSLQPEDFATYYCQQTNSFPWTFGQGTKVEIKR",263 min,320 min,350 min,≥ 1160 min,,,,,
"H4H30089P2 (antibody, human IgG4 S228P, kappa, V domains shown) VH: EVQLVESGGGLVQPGGSLRLSCIVSGFIFSSYEMSWLRQAPGKGLEWISYISSSGRVIYYADSVKGRFTISRDSAKNSLYLEMNSLRAEDTAIYYCTRKWDSSGPFDFWGQGTLVTVSS VL: not shown",4.1 min,4.9 min,5.2 min,608 min,,,,,
"H4H30095P2 (antibody, human IgG4 S228P, kappa, V domains shown) VH: QVQLVQSGVEVKKPGASVKVSCKASGYTFKFYGISWVRQAPGQGLEWMGWISVYNGKTKYAQKLQGRVTMTTDTSTSTAYMELRSLRSDDTAVYFCARDGDYESSGYPFDYWGQGTLVTVSS VL: not shown",2.3 min,,2.6 min,117 min,2.5 min,,,,
"H4H30102P2 (antibody, human IgG4 S228P, kappa, V domains shown) VH: EVQLVESGGDLVQPGGSLRLSCAASGFTFSSYEMNWVRQAPGKGLEWVSYISNSGSTIYYADSVKGRFTISRDNAETSLYLQMNSLRAEDTAVYYCAREGWGAYCAGDCYSGFDIWGQGTMVTVSS VL: not shown",,,50.2 min,,,,,,
"H4H30105P2 (antibody, human IgG4 S228P, kappa, V domains shown) VH: EVQLVQSGAEVKKPGESLKISCKGSGYSFTSYWIAWVRQMPGKGLEWMGIIYPGDSDTRYSPSFQGQVTMSADKSIRIAYLQWSSLKASDTAMYYCARLDYSGSWFDYWGQGTLVTVSS VL: not shown",2.3 min,9.5 min,1.4 min,,1.8 min,,,,
"H4H30108P2 (antibody, human IgG4 S228P, kappa, V domains shown) VH: QVQLVQSGAEVKKPGASVKVSCKASGYTFNSYDVNWVRQATGQGLEWMGWMNPHSGNTGYAQKFQGRVTMTRDTSTSTSYMELSSLTSEDTAVYYCARGPFSLLSAEFFQHWGQGTLVTVSS VL: not shown",72.6 min,5.8 min,85.2 min,,,,,,
"H4H30117P2 (antibody, human IgG4 S228P, kappa, V domains shown) VH: QVQLVQSGAEVKKPGSSVKVSCKASGDTFSNYVIGWVRQAPGQGLEWMGGIIPIFGTTNYAQQFQGRVTITTDESTSTAYMELSSLRSEDTAVYYCARDGNYGDYFDYWGQGTLVTVSS VL: not shown",1.8 min,,1.3 min,87 min,1.6 min,,,,
"H4H30045P (antibody, human IgG4 S228P, kappa, V domains shown) VH: QVQLVQSGAEVKKPGASVKVSCKTSGYRFVNYGFSWVRQAPGQGLEWMGWISPYNGNTNYIQNLQDRITMTTDTSTNTAYMELTNLRSDDTAVYYCATLTGVHFDYWGQGTLVTVSS VL: AIQMTQSPSSLSASVGDRVTITCRASQGIRNDLGWYQQKPGKAPNLLIFETSRLQSGVPSRFSGSGSGTDFTLTINSLQPEDFATYYCLQDYNYPWTFGQGTKVEIKR",1.9 min,,1.3 min,71.8 min,1.5 min,,,,
"H4H30061P (antibody, human IgG4 S228P, kappa, V domains shown) VH: EVQLVESGGGLAQPGGSLKLSCEASGFTFSDSAMHWVRQASGKGLEWVGRIRSKANSYATGYAASVKGRFTISRDDSKNMAFLEMNSLKTEDTAVYYCLRQTYGDPWGQGTLVTVSS VL: DVVMTQSPLSLSVTLGQPASISCRSSLSLVYSDGNNYLNWFQQRPGQSPRRLLYKVFNRDSGVPDRFSGSGSGTDFTLKISRVEAEDVGVYYCMQGTHWPWTFGQGTKVEIKR",132 min,,118 min,≥ 1160 min,146 min,,,,
"anti-FGFR3-hIgG1 comparator (REGN6331) (antibody, V domains shown, Human IgG1 comparator; also called COMP6331; anti-FGFR3 comparator antibody) VH: EVQLVESGGGLVQPGGSLRLSCAASGFTFTSTGISWVRQAPGKGLEWVGRIYPTSGSTNYADSVKGRFTISADTSKNTAYLQMNSLRAEDTAVYYCARTYGIYDLYVDYTEYVMDYWGQGTLVTVSS VL: DIQMTQSPSSLSASVGDRVTITCRASQDVDTSLAWYKQKPGKAPKLLIYSASFLYSGVPSRFSGSGSGTDFTLTISSLQPEDFATYYCQQSTGHPQTFGQGTKVEIKR",18.8 min,,,,8.77 min,0.000616 s⁻¹,883000 M⁻¹ s⁻¹,0.00132 s⁻¹,544000 M⁻¹ s⁻¹
